{"source": "patent US20040048242", "proteins": {"B1": {"name": "his-tagged p300 1195-1673 (protein)", "chain": "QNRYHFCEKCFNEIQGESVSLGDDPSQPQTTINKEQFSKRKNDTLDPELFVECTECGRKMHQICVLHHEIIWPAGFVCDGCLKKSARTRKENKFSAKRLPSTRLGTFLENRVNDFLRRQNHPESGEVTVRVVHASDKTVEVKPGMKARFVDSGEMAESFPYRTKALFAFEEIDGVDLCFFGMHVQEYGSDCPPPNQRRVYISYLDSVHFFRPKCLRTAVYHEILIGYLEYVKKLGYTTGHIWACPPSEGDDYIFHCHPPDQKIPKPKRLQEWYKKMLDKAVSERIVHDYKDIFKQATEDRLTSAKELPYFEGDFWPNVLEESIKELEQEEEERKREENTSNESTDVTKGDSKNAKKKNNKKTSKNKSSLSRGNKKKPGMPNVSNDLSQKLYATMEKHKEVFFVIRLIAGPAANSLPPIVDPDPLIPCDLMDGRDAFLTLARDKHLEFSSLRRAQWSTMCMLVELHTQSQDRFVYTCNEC"}}, "molecular_target": "T1, GST-pRb (non-acetylated), P06400", "T1 chain": "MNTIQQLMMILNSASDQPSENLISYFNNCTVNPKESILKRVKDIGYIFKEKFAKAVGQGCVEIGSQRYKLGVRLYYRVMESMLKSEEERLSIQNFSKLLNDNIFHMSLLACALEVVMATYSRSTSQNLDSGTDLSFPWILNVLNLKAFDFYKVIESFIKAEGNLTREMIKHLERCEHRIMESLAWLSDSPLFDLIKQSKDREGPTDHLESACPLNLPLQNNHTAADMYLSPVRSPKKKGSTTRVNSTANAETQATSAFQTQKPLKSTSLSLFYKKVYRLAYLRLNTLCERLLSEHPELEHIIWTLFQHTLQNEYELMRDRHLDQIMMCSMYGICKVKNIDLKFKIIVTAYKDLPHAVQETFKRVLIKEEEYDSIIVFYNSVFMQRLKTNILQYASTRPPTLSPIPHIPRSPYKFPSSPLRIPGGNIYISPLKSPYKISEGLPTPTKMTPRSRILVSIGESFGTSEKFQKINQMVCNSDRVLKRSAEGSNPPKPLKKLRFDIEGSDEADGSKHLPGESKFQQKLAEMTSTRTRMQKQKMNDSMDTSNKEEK"}
{"protein": "B1", "values": [{"measurement": "in vitro acetylation of GST-pRb with 14C acetyl CoA", "value": "GST-pRb could be acetylated by p300"}]}
